Non-standard residues stand in square brackets, D forms with d. Residues, ends and D or L forms follow the SMILES beside them. No end group written: not given here. pT = C[C@@H](OP(=O)(O)O)[C@H](N)C(=O)O; pS = N[C@@H](COP(=O)(O)O)C(=O)O
Experiments:
[1] = molecular target: T1, HLA-A*0201 (HLA-A2) peptide complexes (Homo sapiens, UniProt P04439, D140Y/D185E/D98H/E176V/E277Q/G131W/G231S/I119V/I121R/I166T/I218V/L300P/L318F/N151K/N90K/P208A/P217A/Q86G/Q94H/R138H/R169H/T345S); assay: HLA-A*0201 phosphopeptides associated with leukemia samples (isolation of HLA-associated peptides); details: for Copies/cell class, JY: EBV transformed B lymphoblastoid cell line JY; for Copies/cell class, AML1: acute myeloid leukemia sample AML1; for Copies/cell class, CLL1: chronic lymphocytic leukemia sample CLL1; for Copies/cell class, B Cell: healthy B cells; for Copies/cell class, T Cell: healthy T cells; for Copies/cell class, MCL: mantle cell lymphoma sample
T1 construct: endogenous in cells; host or cells: JY B-lymphoblastoid line; primary CLL, MCL, AML, ALL samples; healthy splenic T and B cells
Text: To identify naturally processed tumor-associated phosphopeptides, HLA-A*0201 (HLA-A2) and HLA-B*0702 (HLA-B7) peptide complexes from four (4) chronic lymphocytic leukemia (CLL) tumor samples, a mantle cell lymphoma sample (MCL), one acute lymphoblastic leukemia (ALL), and an acute myeloid leukemia (AML) sample, in addition to healthy splenic T and B-cells and the cultured lymphoblastoid cell line JY were isolated. These efforts yielded 10 HLA-A2-restricted and 86 HLA-B7-restricted phosphopeptide antigens (see Tables 6 and 7).
All cell lines were grown at 37° C. with 5% CO2 in growth medium consisting of RPMI 1640 supplemented with 10% FCS and two mM L-glutamine. Blood or leukapheresis samples were taken from patients with high-burden leukemia in heparin. Tumor cells were recovered by layering the blood over density gradient (Ficoll) and collecting the tumor layer following centrifugation. The tumor was washed in tris-buffered saline (TBS). The purity of the tumor was assessed using flow cytometry and was >98% pure in all cases. For healthy T and B-cell populations, a normal spleen sample processed and tonsil sample was collected and lymphocytes released through mechanical disruption. Mononuclear cells were isolated using a density gradient and 10^9 T cells isolated using anti-CD19 or anti-CD3 microbeads (Miltenyi Biotec Inc., Auburn, California, United States of America) with purity >98% were obtained. Bone marrow sample was obtained from an elective orthopedic procedure and red cell-depleted using hypotonic lysis. This sample was not processed further.
Class I MHC molecules were immunoaffinity purified from the JY cell line or from primary tumor samples, and their associated peptides were extracted as previously described in Zarling et al., 2006. Approximately 1.2-14×10^9 cells were lysed in a solution containing 20 mM Tris-HCl (pH 8.0), 150 mM NaCl, 1% CHAPS, one mM PMSF, five μg/mL aprotinin, 10 μg/mL leupeptin, 10 μg/mL pepstatin A, 1 μg/ml calyculin A, and phosphatase inhibitor (cocktails I and II; Sigma-Aldrich). The mixture was subjected to centrifugation and the resulting supernatant was passed over protein A sepharose pre-loaded with the HLA-A2-specific antibody BB7.2 or HLA-B7-specific antibody MEL Peptides were eluted from the purified class I MHC molecules with 10% acetic acid.

HLA A*0201 [2] = molecular target: T2, HLA A*0201 (Homo sapiens, UniProt P04439, D140Y/D185E/D98H/E176V/E277Q/G131W/G231S/I119V/I121R/I166T/I218V/L300P/L318F/N151K/N90K/P208A/P217A/Q86G/Q94H/R138H/R169H/T345S); assay: HLA-A*0201 peptide-binding competition assay; details: for IC50: FIG. 2F, three independent experiments, triplicate wells, read-out: IC50, competition with a standard peptide for HLA-A2 binding (converted)
Protocol: Affinity purified HLA-A*0201 was incubated with iodinated peptide […] (SEQ ID NO: 2379), graded doses of test peptides, and β2M as previously described (Zarling et al., 2000). Peptide-MHC complexes were captured in W6/32-coated ELISA plates after 48 hours and the dose at which test peptides inhibited binding of the indicator peptide by 50% (IC50) was calculated.

HLA A*0201 [3] = molecular target: T2, HLA A*0201; assay: Binding to HLA A*0201 (statement)
PBMCs = assay: Memory T cell response, IFNγ ELISpot, healthy A2 positive donors; assay type: cell-based, human; details: for Day 7 ELISpot, donor alpha: healthy A2 positive donor alpha; for Day 7 ELISpot, donor beta: healthy A2 positive donor beta; for Memory T cell response, in words: healthy donors / patient; for Day 7 ELISpot, donor one: healthy A2 positive donor one

Compound | Copies/cell class, CLL2 [1] | Copies/cell class, CLL3 [1] | Copies/cell class, CLL4 [1] | Copies/cell class, JY [1] | Copies/cell class, AML1 [1] | Copies/cell class, CLL1 [1] | Copies/cell class, B Cell [1] | Copies/cell class, T Cell [1] | Copies/cell class, MCL [1] | other results
440 (KLIDRTESL; SITE (1)..(9): One or more of the listed amino acids can be phosphorylated as set forth in the Tables; listed as Homo sapiens) [compound 440] | 2 (2 indicates 1-5 copies/cell) | 1 (1 indicates <1 copy/cell) | 1 (1 indicates <1 copy/cell) | 2 (2 indicates 1-5 copies/cell) | 0 | 2 (2 indicates 1-5 copies/cell) | 0 | 0 | 0 | 
444 (KMDSFLDMQL; SITE (1)..(10): One or more of the listed amino acids can be phosphorylated as set forth in the Tables; listed as Homo sapiens) [compound 444] | 0 | 0 | 1 (1 indicates <1 copy/cell) | 2 (2 indicates 1-5 copies/cell) | 0 | 0 | 0 | 0 | 0 | 
451 (RQASIELPSM; SITE (1)..(10): One or more of the listed amino acids can be phosphorylated as set forth in the Tables; listed as Homo sapiens) [compound 451] | 2 (2 indicates 1-5 copies/cell) | 1 (1 indicates <1 copy/cell) | 1 (1 indicates <1 copy/cell) | 4 (4 indicates >25 copies per cell) | 1 (1 indicates <1 copy/cell) | 2 (2 indicates 1-5 copies/cell) | 2 (2 indicates 1-5 copies/cell) | 2 (2 indicates 1-5 copies/cell) | 1 (1 indicates <1 copy/cell) | 
456 (RQLSSGVSEI; SITE (1)..(10): One or more of the listed amino acids can be phosphorylated as set forth in the Tables; listed as Homo sapiens) [compound 456] | 0 | 1 (1 indicates <1 copy/cell) | 0 | 0 | 0 | 0 | 0 | 0 | 0 | 
457 (RTFSPTYGL; SITE (1)..(9): One or more of the listed amino acids can be phosphorylated as set forth in the Tables; listed as Homo sapiens) [compound 457] | 0 | 1 (1 indicates <1 copy/cell) | 0 | 0 | 0 | 0 | 0 | 0 | 0 | 
459 (RVASPTSGV; SITE (1)..(109: One or more of the listed amino acids can be phosphorylated as set forth in the Tables; listed as Homo sapiens) [compound 459] | 1 (1 indicates <1 copy/cell) | 0 | 0 | 0 | 0 | 1 (1 indicates <1 copy/cell) | 0 | 0 | 1 (1 indicates <1 copy/cell) | 
460 (SMTRSPPRV; SITE (1)..(9): One or more of the listed amino acids can be phosphorylated as set forth in the Tables; listed as Homo sapiens) [compound 460] | 0 | 1 (1 indicates <1 copy/cell) | 0 | 0 | 0 | 0 | 0 | 0 | 0 | 
464 (VMIGSPKKV; SITE (1)..(9): One or more of the listed amino acids can be phosphorylated as set forth in the Tables; listed as Homo sapiens) [compound 464] | 0 | 0 | 0 | 0 | 0 | 0 | 0 | 0 | 1 (1 indicates <1 copy/cell) | 
CC[C@H](C)[C@H](NC(=O)CNC(=O)[C@H](COP(=O)(O)O)NC(=O)[C@H](CC(=O)O)NC(=O)[C@H](CC(C)C)NC(=O)[C@@H](N)Cc1ccc(O)cc1)C(=O)N[C@@H](Cc1c[nH]cn1)C(=O)N[C@@H](CO)C(=O)NCC(=O)N[C@@H](C)C(=O)O [SEQ ID NO: 427, YLD(pS)GIHSGA] (H-YLD[pS]GIHSGA-OH) |  |  |  |  |  |  |  |  |  | IC50 (HLA A*0201 [2]): 298 nM
CC[C@H](C)[C@H](NC(=O)CNC(=O)[C@H](COP(=O)(O)O)NC(=O)[C@H](CC(=O)O)NC(=O)[C@H](CC(C)C)NC(=O)[C@@H](N)Cc1ccc(O)cc1)C(=O)N[C@@H](Cc1c[nH]cn1)C(=O)N[C@@H](CO)C(=O)NCC(=O)N[C@H](C(=O)O)C(C)C [SEQ ID NO: 2080, YLDsGIHSGV] (H-YLD[pS]GIHSGV-OH) |  |  |  |  |  |  |  |  |  | IC50 (HLA A*0201 [2]): 36.4 nM
CC[C@H](C)[C@H](NC(=O)CNC(=O)[C@H](COP(=O)(O)O)NC(=O)[C@H](CC(=O)O)NC(=O)[C@H](CC(C)C)NC(=O)[C@@H](N)Cc1ccc(O)cc1)C(=O)N[C@@H](Cc1c[nH]cn1)C(=O)N[C@@H](COP(=O)(O)O)C(=O)NCC(=O)N[C@@H](C)C(=O)O [pS33/S37-βcat30] (H-YLD[pS]GIH[pS]GA-OH) |  |  |  |  |  |  |  |  |  | IC50 (HLA A*0201 [2]): 575 nM
APRRYsSSL (APRRY[pS]SSL; listed as Homo sapiens) [SEQ ID NO: 267] |  |  |  |  |  |  |  |  |  | Binding to HLA A*0201 (HLA A*0201 [3]): does not bind to A*0201; Day 7 ELISpot, donor alpha (PBMCs): ++ (25-99 spots); Day 7 ELISpot, donor beta (PBMCs): + (3-24 spots); Memory T cell response, in words (PBMCs): Two healthy donors (HD) responded
IMDRtPEKL (IMDR[pT]PEKL; listed as Homo sapiens) [SEQ ID NO: 398] |  |  |  |  |  |  |  |  |  | Day 7 ELISpot, donor alpha (PBMCs): +++ (>100 spots); Day 7 ELISpot, donor one (PBMCs): + (3-24 spots)
RTFpSPTYGL (RTF[pS]PTYGL; listed as Homo sapiens) [SEQ ID NO: 457] |  |  |  |  |  |  |  |  |  | Day 7 ELISpot, donor one (PBMCs): + (3-24 spots); Day 7 ELISpot, donor three (PBMCs; healthy A2 positive donor three): + (3-24 spots)
TPRVTGGGAM (Artificially synthesized cytomegalovirus peptide) [TPR (CMV), cytomegalovirus (CMV) peptide, reference compound] |  |  |  |  |  |  |  |  |  | Day 7 ELISpot, donor alpha (PBMCs): +++ (>100 spots); Day 7 ELISpot, donor one (PBMCs): + (3-24 spots)
VMIGpSPKKV (VMIG[pS]PKKV; listed as Homo sapiens) [SEQ ID NO: 426] |  |  |  |  |  |  |  |  |  | Day 7 ELISpot, donor alpha (PBMCs): ++ (25-99 spots); Day 7 ELISpot, donor beta (PBMCs): + (3-24 spots); Day 7 ELISpot, donor one (PBMCs): ++ (25-99 spots); Day 7 ELISpot, donor two (PBMCs; healthy A2 positive donor two): ++ (25-99 spots)
VMIGsPKKL |  |  |  |  |  |  |  |  |  | HLA-A*0201 (MHC) binding affinity, in words (HLA A*0201 [2]): weak MHC binding affinity; Memory T cell response, in words (PBMCs): strong phosphopeptide-specific memory T cell response

From US12042530B2, “Target peptides for immunotherapy and diagnostics” (University of Virginia Patent Foundation, priority 2012, dated 2024)
